Assay results taken from PMC6202311, “Substrate Recognition and Autoinhibition in the Central Ribonuclease RNase E” (Molecular Cell, 2018).

B1: RNase E (1–529) D303R, D346R (domain or fragment)
chain: not shown
notes: Crystallised with a 5' monophosphorylated MicC-ompD fusion RNA; Prepared as in Callaghan et al., 2005; cloned in pET16; source: E. coli BL21(DE3), purified (nickel HiTrap Chelating, optional heparin or butyl Sepharose, gel filtration)
B2: RNase E (1–510) D303R, D346R (domain or fragment)
chain: not shown
notes: Crystallised with full-length sRNA RprA; also called RNase E (1–511); source: E. coli BL21(DE3), purified (nickel HiTrap Chelating, optional heparin or butyl Sepharose, gel filtration)

Key:
[1] = molecular target: the molecule itself; assay: crystal structure; RNase E (1-529) D303R, D346R co-crystallised with 5' monophosphorylated MicC-ompD fusion RNA (1:1 molar ratio); 3.0 Å, space group C2; open-state quaternary structure
[2] = molecular target: the molecule itself; assay: crystal structure; RNase E (1-510) D303R, D346R co-crystallised with full-length sRNA RprA; 3.95 Å, space group P6(1); 0.1 M KCl, 0.01 M MgCl2, 0.05 M Tris-HCl pH 8.5, 30% PEG 400, 20°C; tetramer as a dimer of dimers

Row | Protein | binding result [1] | stoichiometry N [2]
1 | B1 | binds | 
2 | B2 |  | 4
